From patent publication US20070059820A1
One block for each molecule: values may come before it.

Legend:
recombinant Flk-1 [1] = biological target: recombinant Flk-1 (UniProt P35918); experiment: ELISA on coated recombinant Flk-1, anti-rat IgG1 HRP; antibody at 1000 ng/ml
recombinant Flk-1 [2] = biological target: recombinant Flk-1 (UniProt P35918); experiment: competition ELISA: antibody mixed with Flk-1, added to coated human VEGF, anti-Flk-1-HRP; antibody at 1000 ng/ml
recombinant Flk-1 [3] = biological target: recombinant Flk-1 (UniProt P35918); experiment: competition ELISA: antibody mixed with Flk-1, added to coated human VEGF, anti-Flk-1-HRP; antibody at 4 ng/ml
recombinant Flk-1 [4] = biological target: recombinant Flk-1 (UniProt P35918); experiment: competition ELISA: antibody mixed with Flk-1, added to coated human VEGF, anti-Flk-1-HRP; antibody at 111 ng/ml
recombinant Flk-1 [5] = biological target: recombinant Flk-1 (UniProt P35918); experiment: ELISA on coated recombinant Flk-1, anti-rat IgG1 HRP; antibody at 0 ng/ml (background)
recombinant Flk-1 [6] = biological target: recombinant Flk-1 (UniProt P35918); experiment: competition ELISA: antibody mixed with Flk-1, added to coated human VEGF, anti-Flk-1-HRP; antibody at 0 ng/ml (no inhibitor)
recombinant Flk-1 [7] = biological target: recombinant Flk-1 (UniProt P35918); experiment: competition ELISA: antibody mixed with Flk-1, added to coated human VEGF, anti-Flk-1-HRP; antibody at 12 ng/ml
recombinant Flk-1 [8] = biological target: recombinant Flk-1 (UniProt P35918); experiment: ELISA on coated recombinant Flk-1, anti-rat IgG1 HRP; antibody at 12 ng/ml
recombinant Flk-1 [9] = biological target: recombinant Flk-1 (UniProt P35918); experiment: ELISA on coated recombinant Flk-1, anti-rat IgG1 HRP; antibody at 111 ng/ml
recombinant Flk-1 [10] = biological target: recombinant Flk-1 (UniProt P35918); experiment: ELISA on coated recombinant Flk-1, anti-rat IgG1 HRP; antibody at 333 ng/ml
recombinant Flk-1 [11] = biological target: recombinant Flk-1 (UniProt P35918); experiment: competition ELISA: antibody mixed with Flk-1, added to coated human VEGF, anti-Flk-1-HRP; antibody at 333 ng/ml
recombinant Flk-1 [12] = biological target: recombinant Flk-1 (UniProt P35918); experiment: ELISA on coated recombinant Flk-1, anti-rat IgG1 HRP; antibody at 37 ng/ml
recombinant Flk-1 [13] = biological target: recombinant Flk-1 (UniProt P35918); experiment: ELISA on coated recombinant Flk-1, anti-rat IgG1 HRP; antibody at 4 ng/ml
recombinant Flk-1 [14] = biological target: recombinant Flk-1 (UniProt P35918); experiment: competition ELISA: antibody mixed with Flk-1, added to coated human VEGF, anti-Flk-1-HRP; antibody at 37 ng/ml

Sequence of UniProt P35918 (P35918 20-762 limits assumed): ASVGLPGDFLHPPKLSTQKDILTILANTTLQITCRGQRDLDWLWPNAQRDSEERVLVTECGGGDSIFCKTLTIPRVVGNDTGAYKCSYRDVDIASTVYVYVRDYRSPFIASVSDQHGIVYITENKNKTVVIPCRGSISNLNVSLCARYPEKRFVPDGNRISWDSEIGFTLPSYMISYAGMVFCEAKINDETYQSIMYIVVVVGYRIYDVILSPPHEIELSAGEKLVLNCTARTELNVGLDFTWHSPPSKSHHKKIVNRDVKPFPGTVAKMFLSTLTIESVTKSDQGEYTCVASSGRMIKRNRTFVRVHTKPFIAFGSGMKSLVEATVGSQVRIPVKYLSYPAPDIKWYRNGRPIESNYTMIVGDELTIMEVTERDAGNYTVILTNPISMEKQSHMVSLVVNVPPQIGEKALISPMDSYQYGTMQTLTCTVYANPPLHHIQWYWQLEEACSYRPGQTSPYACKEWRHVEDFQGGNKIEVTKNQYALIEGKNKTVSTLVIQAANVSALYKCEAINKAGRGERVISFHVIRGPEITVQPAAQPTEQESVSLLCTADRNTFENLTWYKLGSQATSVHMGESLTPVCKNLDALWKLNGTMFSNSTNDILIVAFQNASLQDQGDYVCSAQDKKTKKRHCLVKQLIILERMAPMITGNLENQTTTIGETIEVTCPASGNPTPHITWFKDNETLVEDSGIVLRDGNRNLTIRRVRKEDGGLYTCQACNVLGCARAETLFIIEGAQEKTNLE

- ELISA signal (name and unit not given) (recombinant Flk-1 [1]): 1.12
- signal of Flk-1 bound to coated VEGF (name and unit not given) (recombinant Flk-1 [2]): 0.193
- signal of Flk-1 bound to coated VEGF (name and unit not given) (recombinant Flk-1 [3]): 0.992
- signal of Flk-1 bound to coated VEGF (name and unit not given) (recombinant Flk-1 [4]): 0.635
- ELISA signal (name and unit not given) (recombinant Flk-1 [5]): 0.117
- signal of Flk-1 bound to coated VEGF (name and unit not given) (recombinant Flk-1 [6]): 1.1
- signal of Flk-1 bound to coated VEGF (name and unit not given) (recombinant Flk-1 [7]): 0.931
- ELISA signal (name and unit not given) (recombinant Flk-1 [8]): 0.403
- ELISA signal (name and unit not given) (recombinant Flk-1 [9]): 0.724
- ELISA signal (name and unit not given) (recombinant Flk-1 [10]): 0.894
- signal of Flk-1 bound to coated VEGF (name and unit not given) (recombinant Flk-1 [11]): 0.357
- ELISA signal (name and unit not given) (recombinant Flk-1 [12]): 0.585
- ELISA signal (name and unit not given) (recombinant Flk-1 [13]): 0.312
- signal of Flk-1 bound to coated VEGF (name and unit not given) (recombinant Flk-1 [14]): 0.834
Molecule: DC101 antibody produced by a hybridoma

- ELISA signal (name and unit not given) (recombinant Flk-1 [1]): 1.14
- signal of Flk-1 bound to coated VEGF (name and unit not given) (recombinant Flk-1 [2]): 0.184
- signal of Flk-1 bound to coated VEGF (name and unit not given) (recombinant Flk-1 [3]): 1.04
- signal of Flk-1 bound to coated VEGF (name and unit not given) (recombinant Flk-1 [4]): 0.43
- ELISA signal (name and unit not given) (recombinant Flk-1 [5]): 0.129
- signal of Flk-1 bound to coated VEGF (name and unit not given) (recombinant Flk-1 [6]): 1.07
- signal of Flk-1 bound to coated VEGF (name and unit not given) (recombinant Flk-1 [7]): 0.945
- ELISA signal (name and unit not given) (recombinant Flk-1 [8]): 0.412
- ELISA signal (name and unit not given) (recombinant Flk-1 [9]): 0.616
- ELISA signal (name and unit not given) (recombinant Flk-1 [10]): 0.993
- signal of Flk-1 bound to coated VEGF (name and unit not given) (recombinant Flk-1 [11]): 0.237
- ELISA signal (name and unit not given) (recombinant Flk-1 [12]): 0.486
- ELISA signal (name and unit not given) (recombinant Flk-1 [13]): 0.274
- signal of Flk-1 bound to coated VEGF (name and unit not given) (recombinant Flk-1 [14]): 0.826
B1: DC101 antibody expressed from CHO-S cells infected with Lenti-DC101-furin/2A14 (clone 7x-24) (antibody, from another filing, V domains shown)
VH: EVQLVETGGGLVQPGNSLKLSCATSGFIFSTTWMNWIRQTPGKRLEWLAQIEDKSNNYFISYSESVKGRFTISRDDSKSSVYLQMNNLKEEDTAIYYCSWKYRSNYYFDYWGQGVMVTVSS
VL: DIVLTQSPALAVSLEQRATISCKTSQNVDYYGISYLHWYQQKPGQQPKLLIYEGSNLASGIPARFSGSGSGTDFTLTIDPVEADDIVTYYCQQSKDYPYTFGAGTKLELKR
